Data on five molecules can be found in article PMC2196189 (The Journal of Cell Biology, 2001).

One experiment addresses GST–Nup60p (S. cerevisiae, UniProt P39705 1-539). In words: pull-down.
The next experiment deals with T1, Kap95p (recombinant) (S. cerevisiae, UniProt Q06142 1-861).
T1 sequence (looked up): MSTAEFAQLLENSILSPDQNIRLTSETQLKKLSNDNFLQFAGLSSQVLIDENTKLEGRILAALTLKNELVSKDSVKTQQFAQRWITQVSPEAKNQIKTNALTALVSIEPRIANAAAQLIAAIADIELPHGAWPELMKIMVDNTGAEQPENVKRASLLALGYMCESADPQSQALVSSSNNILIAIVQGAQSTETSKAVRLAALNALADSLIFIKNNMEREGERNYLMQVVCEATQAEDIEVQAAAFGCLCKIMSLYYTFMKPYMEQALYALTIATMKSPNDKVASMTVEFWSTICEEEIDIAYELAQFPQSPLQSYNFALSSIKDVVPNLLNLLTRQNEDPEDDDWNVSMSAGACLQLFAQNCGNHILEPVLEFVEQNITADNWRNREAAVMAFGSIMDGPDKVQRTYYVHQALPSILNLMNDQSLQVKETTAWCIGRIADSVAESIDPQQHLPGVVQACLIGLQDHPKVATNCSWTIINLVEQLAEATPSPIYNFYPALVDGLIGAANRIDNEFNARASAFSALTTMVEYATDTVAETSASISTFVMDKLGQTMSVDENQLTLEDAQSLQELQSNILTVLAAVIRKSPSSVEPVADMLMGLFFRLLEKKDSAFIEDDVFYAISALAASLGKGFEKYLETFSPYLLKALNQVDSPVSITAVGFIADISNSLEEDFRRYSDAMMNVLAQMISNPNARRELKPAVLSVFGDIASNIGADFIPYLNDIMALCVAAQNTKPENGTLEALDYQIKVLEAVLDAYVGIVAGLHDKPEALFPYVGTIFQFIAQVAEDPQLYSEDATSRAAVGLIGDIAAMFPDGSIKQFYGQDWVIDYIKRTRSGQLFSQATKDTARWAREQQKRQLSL
Description: pull-down.

Experiment [1] addresses Nup2p (construct of the data-not-shown experiments not stated) (S. cerevisiae, UniProt P32499 1-720). Description: radioligand binding.
Experiment [2] deals with T2, Kap95p–Kap60p heterodimers (recombinant) (S. cerevisiae, UniProt Q06142 1-861; Q02821 1-542).
T2 sequence (looked up) 1: T1 sequence (looked up)
T2 sequence (looked up) 2: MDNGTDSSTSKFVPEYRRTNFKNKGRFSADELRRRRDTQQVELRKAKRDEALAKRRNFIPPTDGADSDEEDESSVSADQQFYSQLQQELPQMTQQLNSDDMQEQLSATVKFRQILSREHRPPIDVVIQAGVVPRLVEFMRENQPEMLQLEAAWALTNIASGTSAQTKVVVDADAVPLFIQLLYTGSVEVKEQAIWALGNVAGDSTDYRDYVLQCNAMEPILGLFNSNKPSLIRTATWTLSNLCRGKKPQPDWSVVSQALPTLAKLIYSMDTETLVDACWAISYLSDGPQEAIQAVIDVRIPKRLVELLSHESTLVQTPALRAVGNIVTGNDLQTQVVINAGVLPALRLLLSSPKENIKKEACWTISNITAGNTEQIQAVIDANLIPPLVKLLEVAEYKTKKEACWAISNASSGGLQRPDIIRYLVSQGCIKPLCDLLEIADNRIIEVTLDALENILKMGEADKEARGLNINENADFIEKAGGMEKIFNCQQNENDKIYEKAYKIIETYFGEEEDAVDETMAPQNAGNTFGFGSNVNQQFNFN
In words: pull-down.

Chain of Nup2p (construct of the data-not-shown experiments not stated) (P32499 whole entry): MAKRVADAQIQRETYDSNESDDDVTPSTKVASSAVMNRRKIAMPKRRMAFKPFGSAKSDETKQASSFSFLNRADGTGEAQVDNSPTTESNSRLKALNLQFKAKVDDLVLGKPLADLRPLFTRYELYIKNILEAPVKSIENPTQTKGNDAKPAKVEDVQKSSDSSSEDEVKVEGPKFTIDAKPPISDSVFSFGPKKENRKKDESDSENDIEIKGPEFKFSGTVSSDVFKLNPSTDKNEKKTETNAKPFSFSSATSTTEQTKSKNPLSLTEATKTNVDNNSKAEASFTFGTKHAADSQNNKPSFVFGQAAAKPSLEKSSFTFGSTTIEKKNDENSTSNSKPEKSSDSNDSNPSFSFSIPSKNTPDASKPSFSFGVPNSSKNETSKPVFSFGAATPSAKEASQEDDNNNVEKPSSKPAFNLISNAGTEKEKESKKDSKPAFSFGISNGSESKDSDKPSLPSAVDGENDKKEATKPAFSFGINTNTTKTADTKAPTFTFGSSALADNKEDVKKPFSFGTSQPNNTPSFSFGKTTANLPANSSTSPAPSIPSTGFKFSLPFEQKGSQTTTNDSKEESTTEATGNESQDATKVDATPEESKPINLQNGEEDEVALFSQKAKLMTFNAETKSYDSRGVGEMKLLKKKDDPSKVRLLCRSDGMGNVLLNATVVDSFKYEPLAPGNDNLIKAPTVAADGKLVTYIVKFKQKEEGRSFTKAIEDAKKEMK

B1: Prp20p (natural protein)
chain: MVKRTVATNGDASGAHRAKKMSKTHASHIINAQEDYKHMYLSVQPLDIFCWGTGSMCELGLGPLAKNKEVKRPRLNPFLPRDEAKIISFAVGGMHTLALDEESNVWSWGCNDVGALGRDTSNAKEQLKDMDADDSSDDEDGDLNELESTPAKIPRESFPPLAEGHKVVQLAATDNMSCALFSNGEVYAWGTFRCNEGILGFYQDKIKIQKTPWKVPTFSKYNIVQLAPGKDHILFLDEEGMVFAWGNGQQNQLGRKVMERFRLKTLDPRPFGLRHVKYIASGENHCFALTKDNKLVSWGLNQFGQCGVSEDVEDGALVTKPKRLALPDNVVIRSIAAGEHHSLILSQDGDLYSCGRLDMFEVGIPKDNLPEYTYKDVHGKARAVPLPTKLNNVPKFKSVAAGSHHSVAVAQNGIAYSWGFGETYAVGLGPFEDDTEVPTRIKNTATQDHNIILVGCGGQFSVSGGVKLSDEDAEKRADEMDD
On to B1, for which, in the experiment with GST–Nup60p, the binding result is given as “binds”.

B2: GST–Nup60p (aa 1–187) (domain or fragment, S. cerevisiae, UniProt P39705 1-187, looked up)
chain: MHRKSLRRASATVPSAPYRKQIISNAHNKPSLFSKIKTFFTQKDSARVSPRNNVANKQPRNESFNRRISSMPGGYFHSEISPDSTVNRSVVVSAVGEARNDIENKEEEYDETHETNISNAKLANFFSKKGNEPLSEIEIEGVMSLLQKSSKSMITSEGEQKSAEGNNIDQSLILKESGSTPISISNA
Take B2: the binding result with Kap95p (recombinant) is on record as “binds”.

B3: Kap60p (recombinant) (natural protein, S. cerevisiae, UniProt Q02821 1-542, looked up)
chain: T2 sequence (looked up) 2
In experiment [1], B3 showed a Kd of about 0.2 nM.

B4: GST–Nup60p (aa 389–539) (domain or fragment, S. cerevisiae, UniProt P39705 389-539, looked up)
chain: GDKPPSSAFNFSFNTSRNVEPTENAYKSENAPSASSKEFNFTNLQAKPLVGKPKTELTKGDSTPVQPDLSVTPQKSSSKGFVFNSVQKKSRSNLSQENDNEGKHISASIDNDFSEEKAEEFDFNVPVVSKQLGNGLVDENKVEAFKSLYTF
As for B4, the binding result in experiment [2] is recorded as “binds”.

B5: GST–Nup60p (aa 188–388) (domain or fragment, S. cerevisiae, UniProt P39705 188-388, looked up)
chain: PTFNPKYDTSNASMNTTLGSIGSRKYSFNYSSLPSPYKTTVYRYSAAKKIPDTYTANTSAQSIASAKSVRSGVSKSAPSKKISNTAAALVSLLDENDSKKNNAASELANPYSSYVSQIRKHKRVSPNAAPRQEISEEETTVKPLFQNVPEQGEEPMKQLNATKISPSAPSKDSFTKYKPARSSSLRSNVVVAETSPEKKDG
Consider B5, for which the binding result with Kap95p (recombinant) is on record as “binds”.

One may read the Kd as the equilibrium constant for the complex coming apart. Low readings indicate tighter binding, high ones weaker binding.
